Data: the DeepSol protein solubility set

Assay: soluble on expression in E. coli; label from the status in PepcDB or PDB records

Sequence | soluble on expression in E. coli
KRELTVLDLHPGAGKTRRVLPQLVREAVKKRLRTVILAPTRVVASEMYEALRGEPIRYMTPAVQSERTGNEIVDFMCHSTFTMKLLQGVRVPNYNLYIMDEAHFLDPASVAARGYIETRVSMGDAGAIFMTATPPGTTEAFPPSNSPIIDEETRIPDKAWNSGYEWITEFDGRTVWFVHSIKQGAEIGTCLQKAGKKVLYLNRKTFESEYPKCKSEKWDFVITTDISEMGANFKADRVIDPRKTIKPILLDGRVSMQGPIAITPASAAQRRGRIGRNPEKLGDIYAYSGNVSSDNEGHVSWTEARMLLDNVHVQGGVVAQLYTPEREKTEAYEGEFKLKTNQRKVFSELIRTGDLPVWLAFQVASANVEYHDRKWCFDGPNEHLLLENNQEIEVWTRQGQRRVLKPRWLDGRITSDHLNLKSFKEFASGKR | soluble
MAEKTVYRVDGLSCTNCAAKFERNVKEIEGVTEAIVNFGASKITVTGEASIQQVEQAGAFEHLKIIPEKEA | soluble
MGSDKIHHHHHHMVNSSGLLAKLYNAFNPFEPLPAGDPKYVDCQDVRGDADIEQELGNRMRLADTNTCQLYSGHRGAGKSTELLRLKKYLENREFYVVYFAADEEDIDSEDAQYTDILLACTRRLLKDLKGIASPRPILDWLKGRWEDLKDLAQTPIEFESLGVEAQLTQFAKLTANLRAVPELRQKIRQKIDPYTVTLIQVLNEFLVDAKQHLPNGYKKLAVIVDNLDRMVLVKDAERTNYEEVFLDRSEQLQALDCHLIYTVPISMVYSTRATDLRDIYGDPQILPMIMVKTFEGNVYQPGLEKVKEVIKKRVRQIAPELSLETEIFDSPQTLDRLCLMSGGHVRNLLLLTQDAIGRSEDLPVSEKAVRRAITQARDTYRRAVENHQWCLLAEVSCSKRIINDDLYRSLMYNRCLLEYRYLDDDGEMQRWYDIHPLIQGIPEFKEAVAKLS | not soluble
MSSINITNVTVLDNPAPFVNPFQFEISYECLTSLKDDLEWKLIYVGSAEDETYDQVLESVLVGPVNVGNYRFVLQADSPDPLKIREEDIIGVTVLLLTCSYMDQEFIRVGYYVNNDYDDEQLREEPPTKVLIDKVQRNILTDKPRVTKFPINFHPENEQTLGDGPAPTEPFADSVVNGEAPVFLEQPQKLQEIEQFDDSDVNGEAIALLDQPQNLQET | soluble
MSLHITTKRLLIREFEFKDWQAVYEYTSDSNVMKYIPEGVFTEEDAKAFVNKNKGDNAEKFPVILRDEDCLIGHIVFYKYFGEHTYEIGWVFNPNYQNKGYASEAAQAILEYGFKEMNLHRIIATCQPENIPSYRVMKKIGMRREGFFKKCIPKGNEWWDEYYYAILEEEWNEGHHHHHH | soluble
MSLSIKNIKRIITAWKPSTFETYKKTFEKYGGSVNMHPDVVSYFMIHHDWKFDFFHYEKDGDIKGSYFLCNGKQIGIMARRSYPLSSDEVLIPFSPHARCFFPDKTNKLSIINKQNIINATWKIARKKQNCIIKESFSPKFEKTRRNEIQRFIRNGGEIKCISQLSDKEISSSYISLFHSRFGGTLPCYEYDNLLMFISHLRELMFGHVLFWDNKPCAIDIVLKSESSCNVYYDVPNGAVLNDENCMKLSPGSVLMWLNIDKARRYCQDNNKKMIYSIGAFRPEWKYKLLWSVPCKVGKCLCEGHHHHHH | soluble
MSTTFPLHTESFMLLDSGCLTNSDYFLPFALTDVLTTFSGMQHQPIIHFWQLDQAMILGMKDTRVPHLKEGIASLQENDYSVVVRNAGGLGVIADSGILNVSLILPNNSEHKLSIDAAYELMWAWLRQSFPEKEIDAFEITTSYCPGTYDLSIGGQKFAGIAQRRVKDGISVMIYISVNGNQLARGEVVRDFYLAGLQEQFGENGYPPVDPAVMANLETLIETPLTIDAVKTRLIEALPQQFEKSIDPNLTEPIITSEWFQTNLTVQLEKMAQRNALIKGEIL | not soluble
MDESFDSSVVPGSLTSDDRAIFNEQTLKNGDENSKSSLEVMANCVYLANSTILRERKVIPAEYFQDFQVYGDVSGYTLRQDIPEGRSVSSKLLASHDAIRQKLLQKLAIVVEESLNTNPVETFVWTFVYDSTTSASAEIGYGGRKSKFVVNYLNMDDTAQQFCKMFSELRNVLSLLRPLPRGLIPSMKVAYRGEPEFVPGFQQVDDFVNPEQINLGAVSFPHGNGFQFAYASKFMVEQPSAIRPPVEVSHFEDDLLNSTITPIEVVRDNTMNCAENPELDEIYFSPGRQEVRMDEDVANESIRCNPSMASEMMVLQSEYNVLIADNDEVPMVVERERSPIVKAAKKRSTRAPAVPITPTEPASPVESPVKEQPQKAPKAQMRRSSKRTTKNNERCEQKEEEPIVNPKRRSARRLVPPVEVDEQPEEQNDDDAQNSLQIDSDAQNSLQIDSDAIITSPEKRNESKSAIPEEAADLDNTTSEKQESSTARYGVSNTSINRKKPDPVANPVSEEAQVDLANGSIPDKRPRKRKYGRVSSILDVADLPTDDTVEEDVRESPIYGRVPSILDVARAEENDAQNDAQDAQNEIAVEGLADLSIDTEQHEEAAPINVTGHQSESVPIIVTEHQSEEAQTVVTEQPAGAASVIAAERHYGRVSSILDVAGSFADVDPSGAAPAIATERHYGRVSSILDVAGSLSDVDPQEDTESSTQNQSTSKKFKPNPPKAMRYGQSPNMPSRRGN | not soluble
MGSDKIHHHHHHLKEAILSPRFYTTDFKAIDRLEIDRNGLRDEFDWIRDEFAYDYNRTHFRRTDEFLQDFDDMPERDSFIDFLERSCTAEFSGCLLYAEMVKHLHDPTLRAIFKYMSRDEGRHAGFLNRTMADLNVALDLTVLQKRKKYTYFQPKFIFYSVYLSEKIGYSRYITIYRHLERNPQYCIHPIFKWFEQWCNDEYRHGEFFALLMRSQPEMLEGVNRRWIRFFLLAVYATMYLNDARRSNFYAALGLDWRDYDQTVIRLCNDIATQVYPETMNLDDPRFFAYMDKLVEYDRALRALESRKDPIAMAHSTRLKAAIALRLLAIYRLPTRKTTEAIRWKGLPGFPNYPGPNRPQRVVAAD | not soluble
MSLTKDLLSELIQKHRSFNLSYSAYKQLYEGDHAILQQKQKEQYKPDNRLVVNFAKYIVDTFNGYFIGVPVQTSHENKQVSNYLELLDGYNDQDDNNAELSKICSIYGHGYELVFNDENAEVGITYLTPLEGFIVYDDSIRQKPLFAVRYFYNKDGVLEGSYSDASKITYFKDGEKDLEIGESDPHPFDGVPMIEYVENEERQSLLASVVTLINAFNKAISEKANDVEYFADAYLKILGAELDDETLKSLRDTRIINLKDTDAQQLTVEFLQKPDADATQEHLLDRLENLIFRTAMVANISDESFGTASGIALRYRLQAMDNLAKTKERKFMSGMNRRYKLIASYPTSKIGPKDWIGIKYKFTRNLPANLLEESQIAGNLAGIVSEETQVGVLSIVENPQKEIEKKNSDRPTLISRKAGGLNGQDTTTVLEGHHHHHH | not soluble
MGSDKIHHHHHHMNMAHDEQRWLSPRLQKAAALCNQAPAASESPLWLGIDLGTCDVVSMVVDRDGQPVAVCLDWADVVRDGIVWDFFGAVTLVRRHLATLEQQLGCRFTHAATSFPPGTDPRISINVLESAGLEISHVLDEPTAVADLLQLDNAGVVDIGGGTTGIAIVKQGRVTYSADEATGGHHISLTLAGNRGIGLEEAEQYKRSHAGEIWPVVKPVYEKMAEIVARHIAGQGIVDLWLAGGACMQPGVHELFRQRFPALPVHLPQHSLFMTPLAIANSGREKAEGMYAS | not soluble
MSLRISMATFFPQSVTALDSPLYGRSFADDKMRELFSAQSFISRCVETEVALARAQARLGIIPEDAAAGITAAARTFAPEMERLRDDTEIVGYPILPLVEQLSAHAGEAGKYLHWGATTQDIMDTATVLQIRDGLALISRRIESVRKALAALARNHRDTPMAGRTHLQHALPVTFGYKAAVWLSAFDRHAARLEEISPRVLVVEFSGASGTLASLGTRGLDVQRELARELNLGVPSITWHSARDAVAETVQFLALVSGSLGKLAMDISIMMTTELGEVAEPFVRHRGASSTMPQKQNPVSCELILAGARIVRNHATSMLDAMIHDFERATGPWHLEWSAVPEGFAVASGILYQAEFMLGGLQVFPDRMRENLDHSRGLIVAEAVMMALAPHTGRKEAHDIVYLGCRRAVEDKTGLFEVLRTMPEVAKPLGEEALRDLTDPRNYLGSAGAMVDNVLGGREGHHHHHH | soluble
MGSDKIHHHHHHMLKENRSLDRGIEILETLAREGAMSLADLHRATGLPKSTLRRLLQTLIARKIVRRSLADKLYRTLVVFPDISGEVMPKGMLHISEAAIPRALALTKEIGWPSDIHIRETRAMRIIDNTRHASTFHVERGQINQRVSHFGSATGLACLAEMKDAEIATIYEAFKPDLQWGPVRFGLDLAGLMARIEQVRQVGYAERLSAPMSDPDWDTDLRAIAVAIKARGRVVGGLSVLWLRPYKPVEEFARLHLEALQTAAAEINATLDAVWEDAAT | not soluble
MSLKTALDIIEHAEEHLIEKIAENMHTFGMPSTVGRVLGIIYMNRKPMTLSELSEATGMSKTRMSQVVREMIDANIAEKVFEKGVRKDLYDVEQDYYQTFISLFAANWTKVVSKNKVLYKKLNRELSDLLQRDGLTPEAEEKVNQLLNELKEWLHYYDWLSRLIEFFESEEVFRYVPKTKECSSLKEGGSHHHHHH | soluble
MGRSNKHDVTSTTPSLAIVQANPHPHKDVVPTEAPIVSSYNDHIRPLLDTVDKLRNLNVMQEGIQLPTIVVVGDQSSGKSSVLESLAGISLPRGQGICTRVPLVMRLQRSRSPEPEIWLEYGDKIVPTDEEHIAQTICAATDVIAGSGKGVSDTPLTLHVKKAGVPDITMVDLPGITRVPVNGQPENIYEQISRMVMKYIEPQESIILNVLSATVDFTTCESIRMSKQVDKTGERTLAVVTKADMAPEGLLQKVTADDVSIGLGYVCVRNRIGEETYEEARMQEELLFRTHPMLSMINDEIVGIPVLAQKLTQIQGMMISRCLPEIERKINVKMEISVLEFNKLPIVMASTGEALMSLMDIIGSAKESLLRILVHGDFSEYPNDQKMHCTARLAEMLNRFSDNLQAQPQAVTEEFLMDEIKVLEERKCIGLPNFIPRSSFLAILSQHVDGIQDKPVEFIKEIWDYIEVVLSSVITTYSDNFPQIQSSIKRAGRNLMSRTKERSKTTSQQNFINSVLHDENKPENFALPGFGDVKISHLRKYHAHLLQQAFDMKMRITSYWTIVLRRVVDNLALYLQFSVKNLVNSQFQKEIVAEMVDPRAGGGIDRMLEESPSVASKREKLKNSLKLLKESKDVVAAIVDQNSVYADR | soluble
MTEYKLVVVGDGGVGKSALTIQLIQNHFVEEYDPTIEDSYRKQVVIDGETCLLDILDTAGQEEYSAMRDQYMRTGEGFLLVFAVNEAKSFENVANYREQIRRVKDSDDVPMVLVGNKCDLSSRSVDFRTVSETAKGYGIPNVDTSAKTRMGVDEAFYTLVREIRKHRERHDNNKPQKKKKCQIM | not soluble
MPQFLKGVTLENREGDELPAEEHLKGKIIGLYFSASWCPPCRAFTPKLKEFFEEIKKTHPEFEIIFVSRDRNSSDLVTYFKEHQGEWTYIPFGSDKIMSLMQKYEVKTIPAMRIVNDQGEVIVQDARTEIQNKGENVEGLWAEWMALIK | not soluble
MAHHHHHHSLAPLISVLDLTPVSTGQQPGEALRHTLELAEVADSYQYTRFWIAEHHNSGAFVSAATEILIALAAARTGRIRVGSGGVMLPNHSPLKVAENFMSLEALFPGRIDLGLGRAPGTDGRTALALRRSREALAADDFPTQIALLRAFAGETPWPAGSVFDGVLAEPRGVKLPPLWILGSSLYGAQLAGELGVGYAFAYHFSQEDPAVAVQTYHRHFRPGPLAEPYAILGVNALAAPTEDEARDLSLTSAALSLGILSGQRGVLRSPEEARQWLQEMDTDPAKLLKKARIGTPEQVWASLQELGESTGAQEMLVTTYAHDPLKRQQSYRLLAQAAGMTPQKEEG | soluble
